Laboratory results published in patent US7230094B2, “Neutral sphingomyelinase antisense ribozyme and uses thereof” (priority 2001, dated 2007).

Key:
Type in all cases: cell-based, human
MG-63 cells = test: Cell viability by trypan blue staining; settings: ribozyme transfected cells, 24 hours, trypan blue, FIG. 8
Experimental: FIG. 8 depicts the effect of TNF-α on viability of wild type, ribozyme transfected and wild type/mock transfected cells. Cells ([…]) were seeded in 96 well sterile plastic trays. Upon confluence medium was replaced with serum free minimum essential medium and TNF-α (20 ng/ml). After incubation for 24 h at 37° C., viability of cells were determined by Trypan blue staining. The results represent ±S.D. of three experiments.
The population of viable cells was determined using trypan blue staining. Cells (10^4) were seeded in 96 well plates. Twenty-four hours later, the media was replaced with serum-free MEM, and TNF-α in various concentrations was added. After incubation for 24 hours at 37° C., the cells were trypsinized, and viable cells were counted after staining with trypan blue. Values were compared to the original cell count (10^4) and expressed as a percentage.

N-SMase [1] = test: TNF-α and Fas ligand induced N-SMase activity in WT and mutant cells; settings: for Basal activity of N-SMase: unstimulated CC cells, 2.7±0.1 in MG63 control cells, ±S.D., N=3
Experimental: FIGS. 4A–4B depict the effects of incubation with TNF-α (FIG. 4A) and Fas ligand (FIG. 4B) over time on the activity of N-SMase in mutant and WT cells. Confluent cultures of WT (MG-63) and mutant (CC) cells were incubated with serum free medium with or without TNF-α ([…]) or Fas ligand (1 ng/ml). At the indicated intervals, cells were harvested, centrifuged, and lysed in buffer containing 0.1% Triton™ X-100, 25 mM Tris (pH 7.4), 5 mM EDTA, 1 mM phenylmethylsulfonyl fluoride (PMSF), and 2 μg each of chymostatin, leupeptin, antipain, and pepstatin A. 100 μl of a reaction mixture containing 50 mM Tris (pH 7.4), 5 mM MgCl2, 0.05% Triton™ X-100, 5 mM dithiothreitol (DTT) and 10 nmol [^14C] sphingomyelin (100,000 cpm) was added to 5–10 μl of cell lysate (100 μg protein). The basal activity of N-SMase was 2.7±0.1 nmol/mg protein/hr in MG63 cells and 0.67±0.1 nmol/mg protein/hr in CC cells. These levels were defined as 100% activity. Error bars indicate ±S.D. (N=3).
Tumor necrosis factor alpha (TNF-α) is known to induce programmed cell death through stimulation of sphingomyelinase activity and generation of ceramide. This example describes the ability of the ribozyme directed against N-SMase to inhibit this pathway. The effects of incubation with TNF-α and Fas ligand over time on the activity of N-SMase in mutant and WT cells are shown in FIGS. 4A and 4B, respectively. Confluent cultures of WT (MG-63) and mutant (CC) cells were incubated with serum free medium with or without TNF-α ([…]) or Fas ligand (1 ng/ml), and the activity of N-SMase was determined by measuring the cleavage of [^14C]sphingomyelin. At 0, 10, 20, 30, 40, 50, and 60 minutes, cells were harvested, centrifuged, and lysed in buffer containing 0.1% Triton™ X-100, 25 mM Tris (pH 7.4), 5 mM EDTA, 1 mM phenylmethylsulfonyl fluoride (PMSF), and 2 μg each of chymostatin, leupeptin, antipain, and pepstatin A. 100 μl of a reaction mixture containing 50 mM Tris (pH 7.4), 5 mM MgCl2, 0.05% Triton™ X-100, 5 mM dithiothreitol (DTT) and 10 nmol [^14C]sphingomyelin (100,000 cpm) was added to 5–10 μl of cell lysate (100 μg protein). The basal activity of N-SMase was 2.7±0.1 nmol/mg protein/hr in MG63 cells and 0.67±0.1 nmol/mg protein/hr in CC cells. These levels were defined as 100% activity.

A-SMase = test: Acid sphingomyelinase activity in cell extracts, [14C]sphingomyelin substrate; settings: for Acid SMase activity: MG-63 WT 2.7, L-3 LacZ/sham 2.3, average of two batches; for Reduction in A-SMase activity: ribozyme-transfected cells compared to sham-transfected and untransfected controls
Experimental: Confluent culture of cells were harvested, washed, and pellets lysed in buffer containing 0.1% Triton™ X-100, 25 mM Tris (pH 7.4) buffer, 5 mM EDTA, 1 mM phenylmethylsulfonylfluoride and 2 μg each of chymostatin, leupeptin, antipain, and pepstatin A. The activity levels of acid and neutral sphingomyelinase were measured in cell extracts (100 μg protein) in duplicate as described previously employing […] as the substrate.
Activities of A-SMase and N-SMase were also measured according to methods described in Chatterjee, S. and Ghosh, N. (1996) Glycobiology 6:303–311, incorporated herein by reference, with minor modifications. In brief, 5×10^6 MG63 cells were scraped from the culture plates, washed with PBS, and disrupted by repeated passage through a 25-gauge needle. Nuclei and cell debris were pelleted at 800×g for 5 min. Supernatant fluid was collected, and the protein concentration was measured using the Bio-Rad (Hercules, Calif.) protein detection kit. To measure SMase activity, 50 μg of protein was incubated for 90 min (the reaction was linear for up to 120 min) at 37° C. in buffer (200 μl final volume) containing 250 mM sodium acetate and 1 mM EDTA, pH 5.0, for A-SMase or 250 mM Tris-Cl, pH 7.4, with or without 6 mM MgCl2 for N-SMase, and 0.75 μl of [methyl-^14C]sphingomyelin (SM) (0.2 mCi/ml; 56.6 mCi/mmol). Radioactive phosphocholine produced from [^14C]SM was extracted with 800 μl of chloroform-methanol (2:1, vol/vol) and 100 μl of H2O. [^14C]phosphocholine in the aqueous phase was measured by scintillation counting.

N-SMase [2] = test: N-SMase activity gel analysis of partially purified preparations; settings: CC mutant cells compared to control cells, FIG. 2
Experimental: FIG. 2 depicts N-SMase activity in mutant and WT cells, as determined using gel analysis. Partially purified preparations of the MG-63 (WT) cell line and the mutant cell line CC were subjected to 7.5% polyacrylamide gel electrophoresis at 4° C. employing sodium lauryl sarcosine as the detergent. The gel was calibrated with pre-stained protein molecular weight standards (phosphorylase B, bovine serum albumin (BSA), and ovalbumin). Gel slices were excised and subjected to an N-SMase assay employing […] as the substrate.
N-SMase activity in mutant and WT cells (subjected to detergent extraction as described above), was determined using gel analysis. Partially purified preparations of the MG-63 (WT) cell line and the mutant cell line CC were subjected to 7.5% polyacrylamide gel electrophoresis at 4° C. employing sodium lauryl sarcosine as the detergent. The gel was calibrated with pre-stained protein molecular weight standards (phosphorylase B, bovine serum albumin (BSA), and ovalbumin; Bio-Rad). Gel slices were excised, transferred to glass tubes, and subjected to an N-SMase assay at pH 7.4 employing […] as the substrate.

B1: N-SMase ribozyme: U1 snRNA-derived hammerhead antisense ribozyme targeting N-SMase mRNA, expressed from vector pNSMRz; stably transfected MG63 clones CC and C-B (nucleic acid, listed as Homo sapiens)
chain: AUACUUACCUGGCAGGGGAGAUACCAUGAUCACGAAGGUGGUUUUCCCAGGGCGAGGCUUAUCCAUUGGCCUCCGGAUGUGCUGACCCCUGCGAUUUCCCCAAAUGUGGGAAACUCGACUGCAGAAUAUGUCAUCAUAUUGCCUGAUGAGUCCGUGAGGACGAAACCUCUUCACAUGAAAAAGUGGGGCUGCGUUCGCGCUUCCCCG
MG-63 cells
  Decline in viable cells over a wide range of TNF-α concentrations: no significant decline
N-SMase [1]; ribozyme cells stimulated with TNF-α and Fas-L, sham-transfected cells 4.0
  N-SMase activity under cytokine stimulation: 0.75 nmol/mg protein/hr
N-SMase [1]; ribozyme transfected cells, 0-60 min, FIG. 4A
  Change of N-SMase activity after addition of TNF-α: no significant difference
N-SMase [1]
  Basal activity of N-SMase: 0.67±0.1 nmol/mg protein/hr
N-SMase [1]; listed as antisense ribozyme
  Basal activity of N-SMase: 0.67 nmol/mg protein/hr
A-SMase; MG-63 clone C-B (mutant)
  Acid SMase activity: 2.2 nmol/mg protein/hr
A-SMase; MG-63 clone CC (mutant)
  Acid SMase activity: 2.1 nmol/mg protein/hr
A-SMase
  Reduction in A-SMase activity: unchanged
A-SMase; listed as ribozyme
  Reduction in A-SMase activity: no discernable reduction
N-SMase [2]
  Level of N-SMase activity in gel slices: greatly reduced
